Results on 1 molecule are retold here after US20210163945, “APTAMERS FOR TARGETING COAGULATION FACTOR XIII AND USES THEREOF” (Chang Gung University, published 2021).

For data set [1], the target named is Bovine serum albumin (BSA) (Bos taurus, UniProt P02769 P02769:25-607). The data set is described as follows: dot blot, no binding under native or denatured condition. The note with it: label: FAM or biotin.
The target of data set [2] is T1, Coagulation factor XIII (FXIII) (UniProt P00488;P05160 P00488:2-732,P05160:21-661).
T1 sequence 1: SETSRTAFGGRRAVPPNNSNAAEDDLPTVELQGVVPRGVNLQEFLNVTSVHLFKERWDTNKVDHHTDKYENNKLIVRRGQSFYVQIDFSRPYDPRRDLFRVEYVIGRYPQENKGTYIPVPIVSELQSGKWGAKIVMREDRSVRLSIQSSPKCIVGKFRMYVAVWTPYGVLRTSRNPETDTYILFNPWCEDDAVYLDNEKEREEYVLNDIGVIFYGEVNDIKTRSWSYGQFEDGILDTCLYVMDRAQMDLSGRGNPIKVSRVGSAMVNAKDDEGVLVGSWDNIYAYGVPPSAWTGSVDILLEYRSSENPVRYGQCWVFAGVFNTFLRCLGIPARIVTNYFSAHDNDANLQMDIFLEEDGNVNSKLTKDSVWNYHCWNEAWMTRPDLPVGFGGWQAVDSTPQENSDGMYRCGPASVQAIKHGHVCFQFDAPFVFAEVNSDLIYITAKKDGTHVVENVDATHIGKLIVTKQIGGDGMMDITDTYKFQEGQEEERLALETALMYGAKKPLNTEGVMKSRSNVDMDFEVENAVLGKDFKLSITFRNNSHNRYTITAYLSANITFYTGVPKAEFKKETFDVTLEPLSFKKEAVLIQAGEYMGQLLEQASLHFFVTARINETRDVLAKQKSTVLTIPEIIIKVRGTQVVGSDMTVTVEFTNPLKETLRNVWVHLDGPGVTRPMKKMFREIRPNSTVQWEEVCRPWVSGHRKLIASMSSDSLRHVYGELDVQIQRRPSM
T1 sequence 2: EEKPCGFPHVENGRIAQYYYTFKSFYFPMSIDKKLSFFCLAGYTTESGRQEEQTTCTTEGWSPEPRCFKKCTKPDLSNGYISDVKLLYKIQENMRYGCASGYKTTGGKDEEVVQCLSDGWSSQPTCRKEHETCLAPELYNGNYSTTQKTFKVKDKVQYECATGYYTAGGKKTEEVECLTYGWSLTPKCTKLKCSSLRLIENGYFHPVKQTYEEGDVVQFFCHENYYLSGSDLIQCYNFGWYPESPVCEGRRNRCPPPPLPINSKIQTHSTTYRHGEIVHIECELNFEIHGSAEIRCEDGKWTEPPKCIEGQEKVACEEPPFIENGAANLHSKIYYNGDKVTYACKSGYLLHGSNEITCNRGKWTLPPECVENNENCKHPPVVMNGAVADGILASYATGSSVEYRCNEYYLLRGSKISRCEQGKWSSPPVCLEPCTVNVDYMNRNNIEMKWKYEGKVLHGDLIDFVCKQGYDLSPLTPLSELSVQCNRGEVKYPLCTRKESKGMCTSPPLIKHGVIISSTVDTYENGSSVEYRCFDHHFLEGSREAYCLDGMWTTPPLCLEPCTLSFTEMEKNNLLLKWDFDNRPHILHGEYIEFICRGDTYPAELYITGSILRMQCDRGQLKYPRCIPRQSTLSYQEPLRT
Description: dot blot, binds under native and denatured conditions; PBS/Tween 20, BSA block. Particulars: chain copies: 2; label: FAM or biotin. The procedure: Purified FXIII was blotted on a nitrocellulose (NC) membrane, and air-dried for 1 hr. Then a mixture of BSA, PBS, and Polyoxyethylene(20)sorbitan monolaurate (TWEEN™ 20) was added to the NC membrane and incubated for 1 hr, and following biotin-conjugated aptamers were added to the NC membrane and incubated for another 1 hr. The NC membrane was washed thrice using a washing buffer of PBS and Tween 20, and horseradish peroxidase (HRP)-conjugated streptavidin was added to the NC membrane and incubated for 1 hr. For coloration, a substrate of HRP was added to the NC membrane after washing, and the images of the NC membrane were acquired by a X-ray film processor.

Sequence of Bovine serum albumin (BSA) (P02769 25-607, one chain of several): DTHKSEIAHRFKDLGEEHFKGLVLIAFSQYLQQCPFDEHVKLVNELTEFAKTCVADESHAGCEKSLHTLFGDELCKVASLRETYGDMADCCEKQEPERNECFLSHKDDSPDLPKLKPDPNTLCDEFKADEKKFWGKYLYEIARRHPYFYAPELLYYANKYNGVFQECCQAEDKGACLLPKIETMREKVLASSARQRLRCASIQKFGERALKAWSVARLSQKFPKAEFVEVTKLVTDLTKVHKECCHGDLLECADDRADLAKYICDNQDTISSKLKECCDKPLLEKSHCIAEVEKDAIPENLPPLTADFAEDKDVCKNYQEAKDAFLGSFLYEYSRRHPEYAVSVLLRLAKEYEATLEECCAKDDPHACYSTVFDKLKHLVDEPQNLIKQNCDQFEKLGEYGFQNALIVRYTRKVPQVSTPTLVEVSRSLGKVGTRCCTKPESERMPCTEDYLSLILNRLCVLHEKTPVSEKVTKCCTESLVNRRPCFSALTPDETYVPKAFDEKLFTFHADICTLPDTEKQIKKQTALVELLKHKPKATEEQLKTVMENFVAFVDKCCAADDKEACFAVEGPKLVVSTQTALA

B1: FAT2 (ssDNA)
DNA: CGCAGCATCATTCGGGTCGGGAAGGGGTGTACGGGGCTGCG
B1: the binding result in data set [1] is on record as “no binding”; in data set [2] it was “binds”.
